From the supplement of paper PMC12458215
± gives the uncertainty stated by the source.

Test system: HEK293T
Assay: plasma membrane surface immunostaining intensity (anti-HA, deep receptor scanning) (arbitrary fluorescence units); higher = higher plasma membrane expression
Conditions: GPCR class: A

First: MSSNSSLLVAVQLCYANVNGSCVKIPFSPGSRVILYIVFGFGAVLAVFGNLLVMISILHFKQLHSPTNFLVASLACADFLVGVTVMPFSMVRTVESCWYFGRSFCTFHTCCDVAFCYSSLFHLCFISIDRYIAVTDPLVYPTKFTVSVSGICISVSWILPLMYSGAVFYTGVYDDGLEELSDALNCIGGCQTVVNQNWVLTDFLSFFIPTFIMIILYGNIFLVARRQAKKIENTGSKTESSSESYKARVARRERKAAKTLGVTVVAFMISWLPYSIDSLIDAFMGFITPACIYEICCWCAYYNSAMNPLIYALFYPWFRKAIKVIVTGQVLKNSSATMNLFSEHI [TAAR6]
Second: MNECHYDKHMDFFYNRSNTDTVDDWTGTKLVIVLCVGTFFCLFIFFSNSLVIAAVIKNRKFHFPFYYLLANLAAADFFAGIAYVFLMFNTGPVSKTLTVNRWFLRQGLLDSSLTASLTNLLVIAVERHMSIMRMRVHSNLTKKRVTLLILLVWAIAIFMGAVPTLGWNCLCNISACSSLAPIYSRSYLVFWTVSNLMAFLIMVVVYLRIYVYVKRKTNVLSPHTSGSISRRRTPMKLMKTVMTVLGAFVVCWTPGLVVLLLDGLNCRQCGVQHVKRWFLLLALLNSVVNPIIYSYKDEDMYGTMKKMICCFSQENPERRPSRIPSTVLSRSDTGSQYIEDSISQGAVCNKSTS [LPAR3]
The “plasma membrane surface immunostaining intensity” value of the first is lower: 175 ± 65 for the first, 5905 ± 32 for the second.

Compared with “MNPPSGPRVPPSPTQEPSCMATPAPPSWWDSSQSSISSLGRLPSISPTAPGTWAAAWVPLPTVDVPDHAHYTLGTVILLVGLTGMLGNLTVIYTFCRSRSLRTPANMFIINLAVSDFLMSFTQAPVFFTSSLYKQWLFGETGCEFYAFCGALFGISSMITLTAIALDRYLVITRPLATFGVASKRRAAFVLLGVWLYALAWSLPPFFGWSAYVPEGLLTSCSWDYMSFTPAVRAYTMLLCCFVFFLPLLIIIYCYIFIFRAIRETGRALQTFGACKGNGESLWQRQRLQSECKMAKIMLLVILLFVLSWAPYSAVALVAFAGYAHVLTPYMSSVPAVIAKASAIHNPIIYAITHPKYRVAIAQHLPCLGVLLGVSRRHSRPYPSYRSTHRSTLTSHTSNLSWISIRRRQESLGSESEVGWTHMEAAAVWGAAQQANGRSLYGQGLEDLEAKAPPRPQGHEAETPGKTKGLIPSQDPRM [OPN4]”, “MQPPPSLCGRALVALVLACGLSRIWGEERGFPPDRATPLLQTAEIMTPPTKTLWPKGSNASLARSLAPAEVPKGDRTAGSPPRTISPPPCQGPIEIKETFKYINTVVSCLVFVLGIIGNSTLLRIIYKNKCMRNGPNILIASLALGDLLHIVIDIPINVYKLLAEDWPFGAEMCKLVPFIQKASVGITVLSLCALSIDRYRAVASWSRIKGIGVPKWTAVEIVLIWVVSVVLAVPEAIGFDIITMDYKGSYLRICLLHPVQKTAFMQFYKTAKDWWLFSFYFCLPLAITAFFYTLMTCEMLRKKSGMQIALNDHLKQRREVAKTVFCLVLVFALCWLPLHLSRILKLTLYNQNDPNRCELLSFLLVLDYIGINMASLNSCINPIALYLVSKRFKNCFKSCLCCWCQSFEEKQSLEEKQSCLKFKANDHGYDNFRSSNKYSSS [EDNRB]” is higher in “plasma membrane surface immunostaining intensity” value: 519 ± 36 for the first, 794 ± 140 for the second.

“MAQQWSLQRLAGRHPQDSYEDSTQSSIFTYTNSNSTRGPFEGPNYHIAPRWVYHLTSVWMIFVVIASVFTNGLVLAATMKFKKLRHPLNWILVNLAVADLAETVIASTISVVNQVYGYFVLGHPMCVLEGYTVSLCGITGLWSLAIISWERWMVVCKPFGNVRFDAKLAIVGIAFSWIWAAVWTAPPIFGWSRYWPHGLKTSCGPDVFSGSSYPGVQSYMIVLMVTCCITPLSIIVLCYLQVWLAIRAVAKQQKESESTQKAEKEVTRMVVVMVLAFCFCWGPYAFFACFAAANPGYPFHPLMAALPAFFAKSATIYNPVIYVFMNRQFRNCILQLFGKKVDDGSELSSASKTEVSSVSSVSPA [OPN1MW3]” and “MCPMLLKNGYNGNATPVTTTAPWASLGLSAKTCNNVSFEESRIVLVVVYSAVCTLGVPANCLTAWLALLQVLQGNVLAVYLLCLALCELLYTGTLPLWVIYIRNQHRWTLGLLACKVTAYIFFCNIYVSILFLCCISCDRFVAVVYALESRGRRRRRTAILISACIFILVGIVHYPVFQTEDKETCFDMLQMDSRIAGYYYARFTVGFAIPLSIIAFTNHRIFRSIKQSMGLSAAQKAKVKHSAIAVVVIFLVCFAPYHLVLLVKAAAFSYYRGDRNAMCGLEERLYTASVVFLCLSTVNGVADPIIYVLATDHSRQEVSRIHKGWKEWSMKTDVTRLTHSRDTEELQSPVALADHYTFSRPVHPPGSPCPAKRLIEESC [GPR132]” are within error of each other in “plasma membrane surface immunostaining intensity” value: 288 ± 18 for the first, 372 ± 74 for the second.

Compared with “MDPLNLSWYDDDLERQNWSRPFNGSDGKADRPHYNYYATLLTLLIAVIVFGNVLVCMAVSREKALQTTTNYLIVSLAVADLLVATLVMPWVVYLEVVGEWKFSRIHCDIFVTLDVMMCTASILNLCAISIDRYTAVAMPMLYNTRYSSKRRVTVMISIVWVLSFTISCPLLFGLNNADQNECIIANPAFVVYSSIVSFYVPFIVTLLVYIKIYIVLRRRRKRVNTKRSSRAFRAHLRAPLKGNCTHPEDMKLCTVIMKSNGSFPVNRRRVEAARRAQELEMEMLSSTSPPERTRYSPIPPSHHQLTLPDPSHHGLHSTPDSPAKPEKNGHAKDHPKIAKIFEIQTMPNGKTRTSLKTMSRRKLSQQKEKKATQMLAIVLGVFIICWLPFFITHILNIHCDCNIPPVLYSAFTWLGYVNSAVNPIIYTTFNIEFRKAFLKILHC [DRD2]”, “MANFTPVNGSSGNQSVRLVTSSSHNRYETVEMVFIATVTGSLSLVTVVGNILVMLSIKVNRQLQTVNNYFLFSLACADLIIGAFSMNLYTVYIIKGYWPLGAVVCDLWLALDYVVSNASVMNLLIISFDRYFCVTKPLTYPARRTTKMAGLMIAAAWVLSFVLWAPAILFWQFVVGKRTVPDNQCFIQFLSNPAVTFGTAIAAFYLPVVIMTVLYIHISLASRSRVHKHRPEGPKEKKAKTLAFLKSPLMKQSVKKPPPGEAAREELRNGKLEEAPPPALPPPPRPVADKDTSNESSSGSATQNTKERPATELSTTEATTPAMPAPPLQPRALNPASRWSKIQIVTKQTGNECVTAIEIVPATPAGMRPAANVARKFASIARNQVRKKRQMAARERKVTRTIFAILLAFILTWTPYNVMVLVNTFCQSCIPDTVWSIGYWLCYVNSTINPACYALCNATFKKTFRHLLLCQYRNIGTAR [CHRM4]” is lower in “plasma membrane surface immunostaining intensity” value: 1950 ± 620 for the first, 952 ± 190 for the second.

Same assay, conditions: GPCR class: A (Olfactory)

“MGDNITSIREFLLLGFPVGPRIQMLLFGLFSLFYVFTLLGNGTILGLISLDSRLHAPMYFFLSHLAVVDIAYACNTVPRMLVNLLHPAKPISFAGRMMQTFLFSTFAVTECLLLVVMSYDLYVAICHPLRYLAIMTWRVCITLAVTSWTTGVLLSLIHLVLLLPLPFCRPQKIYHFFCEILAVLKLACADTHINENMVLAGAISGLVGPLSTIVVSYMCILCAILQIQSREVQRKAFRTCFSHLCVIGLVYGTAIIMYVGPRYGNPKEQKKYLLLFHSLFNPMLNPLICSLRNSEVKNTLKRVLGVERAL [OR2A4]” and “MQGENFTIWSIFFLEGFSQYPGLEVVLFVFSLVMYLTTLLGNSTLILITILDSRLKTPMYLFLGNLSFMDICYTSASVPTLLVNLLSSQKTIIFSGCAVQMYLSLAMGSTECVLLAVMAYDRYVAICNPLRYSIIMNRCVCARMATVSWVTGCLTALLETSFALQIPLCGNLIDHFTCEILAVLKLACTSSLLMNTIMLVVSILLLPIPMLLVCISYIFILSTILRITSAEGRNKAFSTCGAHLTVVILYYGAALSMYLKPSSSNAQKIDKIISLLYGVLTPMLNPIIYSLRNKEVKDAMKKLLGKITLHQTHEHL [OR2K2]” are within error of each other in “plasma membrane surface immunostaining intensity” value: 123 ± 3.7 for the first, 144 ± 20 for the second.

With “MEAGNQTGFLEFILLGLSEDPELQPFIFGLFLSMYLVTVLGNLLIILAISSDSHLHTPMYFFLSNLSWVDICFSTCIVPKMLVNIQTENKAISYMDCLTQVYFSMFFPILDTLLLTVMAYDRFVAVCHPLHYMIIMNPHLCGLLVFVTWLIGVMTSLLHISLMMHLIFCKDFEIPHFFCELTYILQLACSDTFLNSTLIYFMTGVLGVFPLLGIIFSYSRIASSIRKMSSSGGKQKALSTCGSHLSVVSLFYGTGIGVHFTSAVTHSSQKISVASVMYTVVTPMLNPFIYSLRNKDVKGALGSLLSRAASCL [OR7D2]” the “plasma membrane surface immunostaining intensity” value was 118 ± 23.
